Test results as given in patent publication US20240116985A1, “STAPLED PEPTIDES AND METHODS THEREOF” (priority 2020, published 2024).
Starred links: 1 amine or outer side, 2 acyl side, 3 side chain; linkers in the order of their positions; H or OH if unused. Positions of bridges follow the written chain, without caps; N, C: chain ends. Non-standard residues stand in square brackets, D forms with d. Primed or numbered codes have the meaning given here. No end group written: not given here. *: point of attachment. PyrS2″ = (S)-3-amino-1-((pent-4-en-1-yloxy)carbonyl)pyrrolidine-3-carboxylic acid (stapling residue), C=CCCCOC(=O)N1CC[C@@](N[*:1])(C(=O)[*:2])C1; B5(23) = 2-amino-2-(pent-4-en-1-yl)hept-6-enoic acid (2,2-bis(4-pentenyl)glycine), stitching residue, C=CCCCC(CCCC=C)(N[*:1])C(=O)[*:2]; B5(4) = 2,2-bis(4-pentenyl)glycine = 2-amino-2-(pent-4-en-1-yl)hept-6-enoic acid (stitching residue), C=CCCCC(CCCC=C)(N[*:1])C(=O)[*:2]; B5(5) = 2,2-bis(4-pentenyl)glycine, 2-amino-2-(pent-4-en-1-yl)hept-6-enoic acid (stitching residue), C=CCCCC(CCCC=C)(N[*:1])C(=O)[*:2]; TfeGA(3) = (S)-2-amino-3-((carboxymethyl)(2,2,2-trifluoroethyl)amino)prop[anoic acid], O=C([C@H](CN(CC(=O)[*:3])CC(F)(F)F)N[*:1])[*:2]; PyrS2 = (S)-3-amino-1-((pent-4-en-1-yloxy)carbonyl)pyrrolidine-3-carboxylic acid, C=CCCCOC(=O)N1CC[C@@](N[*:1])(C(=O)[*:2])C1; B5(7) = 2-amino-2-(pent-4-en-1-yl)hept-6-enoic acid, two olefinic side chains, C=CCCCC(CCCC=C)(N[*:1])C(=O)[*:2]; ProSAm3 = (allylsulfonyl)-D-proline, C=CCS(=O)(=O)N1CCC[C@@H]1C(=O)*; Phe(4-COOH) = N[C@@H](Cc1ccc(C(=O)O)cc1)C(=O)O; Abu(4,4,4-F3) = N[C@@H](CC(F)(F)F)C(=O)O; Ala(2-furyl) = N[C@@H](Cc1ccco1)C(=O)O; Bta = N[C@@H](Cc1csc2ccccc12)C(=O)O; αAllylPro = C=CC[C@@]1(C(=O)O)CCCN1; tBuAla = CC(C)(C)C[C@H](N)C(=O)O; 2Thi = N[C@@H](Cc1cccs1)C(=O)O; 3Thi = N[C@@H](Cc1ccsc1)C(=O)O; Cit = NC(=O)NCCC[C@H](N)C(=O)O; S8 = C=CCCCCCC[C@](C)(N)C(=O)O; Dab = NCC[C@H](N)C(=O)O; Abu = CC[C@H](N)C(=O)O; Dap = NC[C@H](N)C(=O)O; Acryloyl = C=CC(=O)*

B1: I-1567 (peptide)
peptide: Ac-[αAllylPro]D[tBuAla][B5(23)]NQAAFN[PyrS2][3Thi][Bta]Q-NH2
modifications: staple 1-4, 4-11; not fully specified; printed as Ac-PL3-Asp-Npg-B5-Asn-Gln-Ala-Ala-Phe-Asn-PyrS2-3Thi-BztA-Gln-NH2
B2: I-1576 (peptide)
peptide: [ProSAm3]D[tBuAla][B5(4)]DDAAFN[PyrS2″][3Thi][Bta]Q-NH2
modifications: staple (positions not given here); staple 4-11; not fully specified (bridges); printed as ProSAm3-Asp-Npg-B5-Asp-Asp-Ala-Ala-Phe-Asn-PyrS2-3Thi-BztA-Gln-NH2; also: staple isomer of earlier-eluting HPLC peak

target: full-length beta-Catenin (Uniprot ID P35222) (Homo sapiens (Human)) (UniProt P35222); assay: fluorescence polarization competition; full-length beta-catenin, competitor 5FAM-TCF4(10-53) probe

Point of comparison: Ac-[αAllylPro]DI[B5(5)]D[Cit]AAFQ[S8]F[Bta]Q-NH2 (staple 1-4, 4-11) [I-605], EC50 632 nM. Against it:
- Ac-[αAllylPro]D[tBuAla][B5(7)]DDAAFQ[PyrS2][3Thi][Bta]Q-NH2 (staple 1-4, 4-11) [I-763] — 130-fold lower, 5 nM
- Ac-[αAllylPro]D[tBuAla][B5(7)]DDAAFQ[PyrS2][3Thi][Bta]Q-NH2 (staple 1-4, 4-11) [I-764] — 45-fold lower, 14 nM
- Ac-[αAllylPro]D[tBuAla][B5(7)]DDAAFQ[PyrS2][3Thi][Bta]H-NH2 (staple 1-4, 4-11) [I-771] — 130-fold lower, 5 nM
- Ac-[αAllylPro]D[tBuAla][B5(7)]DDAAFQ[PyrS2][3Thi][Bta]H-NH2 (staple 1-4, 4-11) [I-772] — 90-fold lower, 7 nM
- Ac-[αAllylPro]DI[B5(5)]D[Cit]AAFQ[S8]F[Bta]Q-NH2 (staple 1-4, 4-11; also: staple isomer, earlier eluting HPLC peak) [I-604] — within 1.5-fold, 692 nM
- Ac-[αAllylPro]DI[B5(5)]D[Phe(4-COOH)]AAFQ[S8]F[Bta]Q-NH2 (staple 1-4, 4-11; also: staple isomer, earlier eluting HPLC peak) [I-606] — 2.2-fold lower, 289 nM
- Ac-[αAllylPro]DI[B5(5)]D[Phe(4-COOH)]AAFQ[S8]F[Bta]Q-NH2 (staple 1-4, 4-11) [I-607] — 2.5-fold lower, 253 nM

target: full-length beta-Catenin (Uniprot ID P35222) (Homo sapiens (Human)) (UniProt P35222); assay: fluorescence polarization competition; full-length beta-catenin with 5FAM-TCF4(10-53) probe as competitor

Point of comparison: Ac-[αAllylPro]DI[B5(4)]DDAAFQ[S8]F[Bta][Dab]-NH2 (staple 1-4, 4-11) [I-482], IC50 118 nM. Against it:
- Ac-[αAllylPro]D[tBuAla][B5(7)]DDAAFQ[PyrS2][3Thi][Bta]Q-NH2 (staple 1-4, 4-11) [I-763] — 24-fold lower, 5 nM
- Ac-[αAllylPro]D[tBuAla][B5(7)]DDAAFQ[PyrS2][3Thi][Bta]Q-NH2 (staple 1-4, 4-11) [I-764] — 8.4-fold lower, 14 nM
- Ac-[αAllylPro]D[tBuAla][B5(7)]DDAAFQ[PyrS2][3Thi][Bta]H-NH2 (staple 1-4, 4-11) [I-771] — 24-fold lower, 5 nM
- Ac-[αAllylPro]D[tBuAla][B5(7)]DDAAFQ[PyrS2][3Thi][Bta]H-NH2 (staple 1-4, 4-11) [I-772] — 17-fold lower, 7 nM
- Ac-[αAllylPro]D[Abu][B5(4)]DEAAFN[S8]F[Bta]Q-NH2 (staple 1-4, 4-11) [I-473] — within 1.5-fold, 121 nM
- Ac-[αAllylPro]D[Abu][B5(4)]DEAAFN[S8]F[Bta]Q-NH2 (staple 1-4, 4-11) [I-474] — 2.7-fold lower, 43 nM
- Ac-[αAllylPro]DI[B5(4)]DDAAFQ[S8][Dap](Acryloyl)[Bta]Q-NH2 (staple 1-4, 4-11; also: earlier eluting isomer) [I-483] — 42-fold higher, 5000 nM
- Ac-[αAllylPro]DI[B5(4)]DDAAFQ[S8][Dap](Acryloyl)[Bta]Q-NH2 (staple 1-4, 4-11; also: later eluting isomer) [I-484] — 42-fold higher, 5000 nM
- Ac-[αAllylPro]DA[B5(4)]DEAA[2Thi]Q[S8]F[Bta]Q-NH2 (staple 1-4, 4-11; also: earlier eluting isomer) [I-486] — within 1.5-fold, 147 nM
- Ac-[αAllylPro]DA[B5(4)]DEAA[2Thi]Q[S8]F[Bta]Q-NH2 (staple 1-4, 4-11; also: later eluting isomer) [I-487] — 2.6-fold lower, 45 nM
- Ac-[αAllylPro]DI[B5(4)]DEAA[2Thi]Q[S8]F[Bta]H-NH2 (staple 1-4, 4-11) [I-488] — 2.7-fold lower, 43 nM
- Ac-[αAllylPro]DI[B5(4)]DDAA[2Thi]Q[S8]F[Bta]H-NH2 (staple 1-4, 4-11) [I-489] — 2.1-fold lower, 57 nM
- Ac-[αAllylPro]DA[B5(4)]DEAAFQ[S8]F[Bta][Ala(2-furyl)]-NH2 (staple 1-4, 4-11) [I-490] — within 1.5-fold, 88 nM
- Ac-[αAllylPro]DA[B5(4)]D[TfeGA(3)]AAFQ[S8]F[Bta]H-NH2 (staple 1-4, 4-11) [I-499] — within 1.5-fold, 123 nM
- Ac-[αAllylPro]DI[B5(4)]D[TfeGA(3)]AAFQ[S8]F[Bta]H-NH2 (staple 1-4, 4-11) [I-500] — within 1.5-fold, 176 nM
- Ac-[αAllylPro]D[Abu(4,4,4-F3)][B5(4)]DEAAFQ[S8]F[Bta]Q-NH2 (staple 1-4, 4-11; also: earlier eluting isomer) [I-501] — within 1.5-fold, 94 nM
- Ac-[αAllylPro]DI[B5(5)]D[Cit]AAFQ[S8]F[Bta]Q-NH2 (staple 1-4, 4-11; also: staple isomer, earlier eluting HPLC peak) [I-604] — 5.9-fold higher, 692 nM
- Ac-[αAllylPro]DI[B5(5)]D[Cit]AAFQ[S8]F[Bta]Q-NH2 (staple 1-4, 4-11) [I-605] — 5.4-fold higher, 632 nM
- Ac-[αAllylPro]DI[B5(5)]D[Phe(4-COOH)]AAFQ[S8]F[Bta]Q-NH2 (staple 1-4, 4-11; also: staple isomer, earlier eluting HPLC peak) [I-606] — 2.4-fold higher, 289 nM
- Ac-[αAllylPro]DI[B5(5)]D[Phe(4-COOH)]AAFQ[S8]F[Bta]Q-NH2 (staple 1-4, 4-11) [I-607] — 2.1-fold higher, 253 nM

target: full-length beta-Catenin (Uniprot ID P35222) (Homo sapiens (Human)) (UniProt P35222); assay: fluorescence polarization competition; displacement of 5FAM-TCF4(10-53) from full-length beta-catenin
Target sequence in this assay (P35222 whole entry): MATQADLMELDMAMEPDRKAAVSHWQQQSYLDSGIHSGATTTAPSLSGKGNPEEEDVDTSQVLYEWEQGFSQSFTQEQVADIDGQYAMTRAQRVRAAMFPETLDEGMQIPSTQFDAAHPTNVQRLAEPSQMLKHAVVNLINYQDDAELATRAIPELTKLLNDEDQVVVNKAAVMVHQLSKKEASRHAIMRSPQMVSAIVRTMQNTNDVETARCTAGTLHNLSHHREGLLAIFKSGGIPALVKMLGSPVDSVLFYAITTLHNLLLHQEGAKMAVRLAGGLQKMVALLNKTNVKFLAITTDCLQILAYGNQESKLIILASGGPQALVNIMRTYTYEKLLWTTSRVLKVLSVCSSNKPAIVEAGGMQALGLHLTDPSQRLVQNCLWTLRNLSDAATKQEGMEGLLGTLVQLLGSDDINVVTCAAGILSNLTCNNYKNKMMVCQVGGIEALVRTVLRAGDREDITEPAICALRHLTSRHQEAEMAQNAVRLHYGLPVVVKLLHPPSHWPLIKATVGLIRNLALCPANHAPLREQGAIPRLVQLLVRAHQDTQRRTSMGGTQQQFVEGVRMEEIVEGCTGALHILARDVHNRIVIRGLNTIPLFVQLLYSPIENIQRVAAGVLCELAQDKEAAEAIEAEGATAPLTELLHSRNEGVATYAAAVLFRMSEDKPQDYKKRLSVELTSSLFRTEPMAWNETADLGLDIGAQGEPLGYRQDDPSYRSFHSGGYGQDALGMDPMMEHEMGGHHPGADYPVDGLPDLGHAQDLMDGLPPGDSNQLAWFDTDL

Point of comparison: Ac-[αAllylPro]DI[B5(4)]DDAAFQ[S8][Dap](Acryloyl)[Bta]Q-NH2 (staple 1-4, 4-11; also: earlier eluting isomer) [I-483], EC50 5000 nM. Against it:
- Ac-[αAllylPro]D[Abu][B5(4)]DEAAFN[S8]F[Bta]Q-NH2 (staple 1-4, 4-11) [I-473] — 41-fold lower, 121 nM
- Ac-[αAllylPro]D[Abu][B5(4)]DEAAFN[S8]F[Bta]Q-NH2 (staple 1-4, 4-11) [I-474] — 120-fold lower, 43 nM
- Ac-[αAllylPro]DI[B5(4)]DDAAFQ[S8]F[Bta][Dab]-NH2 (staple 1-4, 4-11) [I-482] — 42-fold lower, 118 nM
- Ac-[αAllylPro]DI[B5(4)]DDAAFQ[S8][Dap](Acryloyl)[Bta]Q-NH2 (staple 1-4, 4-11; also: later eluting isomer) [I-484] — the same, 5000 nM
- Ac-[αAllylPro]DA[B5(4)]DEAA[2Thi]Q[S8]F[Bta]Q-NH2 (staple 1-4, 4-11; also: earlier eluting isomer) [I-486] — 34-fold lower, 147 nM
- Ac-[αAllylPro]DA[B5(4)]DEAA[2Thi]Q[S8]F[Bta]Q-NH2 (staple 1-4, 4-11; also: later eluting isomer) [I-487] — 110-fold lower, 45 nM
- Ac-[αAllylPro]DI[B5(4)]DEAA[2Thi]Q[S8]F[Bta]H-NH2 (staple 1-4, 4-11) [I-488] — 120-fold lower, 43 nM
- Ac-[αAllylPro]DI[B5(4)]DDAA[2Thi]Q[S8]F[Bta]H-NH2 (staple 1-4, 4-11) [I-489] — 88-fold lower, 57 nM
- Ac-[αAllylPro]DA[B5(4)]DEAAFQ[S8]F[Bta][Ala(2-furyl)]-NH2 (staple 1-4, 4-11) [I-490] — 57-fold lower, 88 nM
- Ac-[αAllylPro]DA[B5(4)]D[TfeGA(3)]AAFQ[S8]F[Bta]H-NH2 (staple 1-4, 4-11) [I-499] — 41-fold lower, 123 nM
- Ac-[αAllylPro]DI[B5(4)]D[TfeGA(3)]AAFQ[S8]F[Bta]H-NH2 (staple 1-4, 4-11) [I-500] — 28-fold lower, 176 nM
- Ac-[αAllylPro]D[Abu(4,4,4-F3)][B5(4)]DEAAFQ[S8]F[Bta]Q-NH2 (staple 1-4, 4-11; also: earlier eluting isomer) [I-501] — 53-fold lower, 94 nM

target: full-length beta-Catenin (Uniprot ID P35222) (Homo sapiens (Human)) (UniProt P35222); assay: fluorescence polarization competition; full-length beta-catenin, 5FAM-TCF4(10-53) probe as competitor
Target sequence in this assay (P35222 2-781 limits assumed): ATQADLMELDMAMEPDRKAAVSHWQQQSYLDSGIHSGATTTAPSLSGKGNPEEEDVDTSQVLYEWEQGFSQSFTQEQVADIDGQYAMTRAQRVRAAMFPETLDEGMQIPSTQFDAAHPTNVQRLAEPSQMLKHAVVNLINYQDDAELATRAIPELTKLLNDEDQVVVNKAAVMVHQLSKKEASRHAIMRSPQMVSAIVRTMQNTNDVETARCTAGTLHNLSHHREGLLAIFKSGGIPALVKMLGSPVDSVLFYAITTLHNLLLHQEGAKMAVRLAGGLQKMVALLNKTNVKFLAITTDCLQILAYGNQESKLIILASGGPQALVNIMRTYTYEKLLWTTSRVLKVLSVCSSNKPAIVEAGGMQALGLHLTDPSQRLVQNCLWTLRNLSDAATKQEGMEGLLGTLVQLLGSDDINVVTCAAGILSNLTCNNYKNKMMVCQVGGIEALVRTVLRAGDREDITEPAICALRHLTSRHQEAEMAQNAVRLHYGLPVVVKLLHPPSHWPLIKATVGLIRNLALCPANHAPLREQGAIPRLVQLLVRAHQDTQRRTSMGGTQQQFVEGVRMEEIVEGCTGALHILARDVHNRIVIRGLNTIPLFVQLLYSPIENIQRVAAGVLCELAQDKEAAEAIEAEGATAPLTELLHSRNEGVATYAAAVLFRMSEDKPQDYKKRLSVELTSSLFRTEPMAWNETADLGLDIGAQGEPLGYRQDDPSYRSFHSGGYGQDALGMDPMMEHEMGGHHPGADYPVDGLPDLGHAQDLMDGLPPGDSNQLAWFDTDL

Point of comparison: Ac-[αAllylPro]D[tBuAla][B5(4)]SNAAFN[PyrS2][3Thi][Bta]Q-NH2 (staple 1-4, 4-11) [I-1561], IC50 2600 nM. Against it:
- Ac-[αAllylPro]DA[B5(23)]NNAAFN[PyrS2][3Thi][Bta]Q-NH2 (staple 1-4, 4-11) [I-1556] — 6.8-fold lower, 385 nM
- Ac-[αAllylPro]D[tBuAla][B5(23)]NNAAFL[PyrS2][3Thi][Bta]Q-NH2 (staple 1-4, 4-11) [I-1557] — 7.6-fold lower, 342 nM
- Ac-[αAllylPro]D[tBuAla][B5(4)]QQAAFN[PyrS2][3Thi][Bta]Q-NH2 (staple 1-4, 4-11) [I-1558] — 3.8-fold lower, 678 nM
- Ac-[αAllylPro]D[tBuAla][B5(4)]TNAAFN[PyrS2][3Thi][Bta]Q-NH2 (staple 1-4, 4-11) [I-1559] — 3.7-fold higher, 9680 nM
- Ac-[αAllylPro]D[tBuAla][B5(4)]QNAAFN[PyrS2][3Thi][Bta]Q-NH2 (staple 1-4, 4-11) [I-1560] — 7.1-fold lower, 368 nM
- Ac-[αAllylPro]D[tBuAla][B5(4)]LNAAFN[PyrS2][3Thi][Bta]Q-NH2 (staple 1-4, 4-11; also: staple isomer of earlier-eluting HPLC peak) [I-1562] — 1.9-fold higher, 5020 nM
- Ac-[αAllylPro]D[tBuAla][B5(4)]LNAAFN[PyrS2][3Thi][Bta]Q-NH2 (staple 1-4, 4-11; also: staple isomer of later-eluting HPLC peak) [I-1563] — within 1.5-fold, 2850 nM
- Ac-[αAllylPro]D[tBuAla][B5(23)]NQAAFN[PyrS2][3Thi][Bta]Q-NH2 (staple 1-4, 4-11; also: earlier-eluting HPLC staple isomer) [I-1566] — 11-fold lower, 231 nM
- B1 — 14-fold lower, 182 nM
- Ac-[αAllylPro]D[tBuAla][B5(4)]NYAAFN[PyrS2][3Thi][Bta]Q-NH2 (staple 1-4, 4-11; also: staple isomer of earlier-eluting HPLC peak) [I-1568] — 2.8-fold higher, 7180 nM
- Ac-[αAllylPro]D[tBuAla][B5(4)]NYAAFN[PyrS2][3Thi][Bta]Q-NH2 (staple 1-4, 4-11; also: staple isomer of later-eluting HPLC peak) [I-1569] — within 1.5-fold, 2660 nM
- Ac-[αAllylPro]D[tBuAla][B5(4)]NLAAFN[PyrS2][3Thi][Bta]Q-NH2 (staple 1-4, 4-11) [I-1570] — 1.9-fold lower, 1340 nM
- B2 — 12-fold lower, 224 nM
